Where “and” joins values, the source holds several entries; their conditions need not be identical. Equal values may be shown once.
Molecular target: the molecule itself
Assay: cryo-EM structure; purified MS-rings (0.5 mg/ml) in 50 mM Tris-HCl pH 7.5, 100 mM NaCl, 0.1% LDAO on graphene oxide grids, no crosslinking; subunits counted in en-face 2D class averages without rotational symmetry averaging; 3D maps with C32, C33, C34 (RBM3), C21, C22 (RBM2 inner) and C11 symmetry

B1: FliF (subunit of the flagellar MS-ring) (natural protein)
chain: MSATASTATQPKPLEWLNRLRANPRIPLIVAGSAAVAIVVAMVLWAKTPDYRTLFSNLSDQDGGAIVAQLTQMNIPYRFANGSGAIEVPADKVHELRLRLAQQGLPKGGAVGFELLDQEKFGISQFSEQVNYQRALEGELARTIETLGPVKSARVHLAMPKPSLFVREQKSPSASVTVTLEPGRALDEGQISAVVHLVSSAVAGLPPGNVTLVDQSGHLLTQSNTSGRDLNDAQLKFANDVESRIQRRIEAILSPIVGNGNVHAQVTAQLDFANKEQTEEHYSPNGDASKATLRSRQLNISEQVGAGYPGGVPGALSNQPAPPNEAPIATPPTNQQNAQNTPQTSTSTNSNSAGPRSTQRNETSNYEVDRTIRHTKMNVGDIERLSVAVVVNYKTLADGKPLPLTADQMKQIEDLTREAMGFSDKRGDTLNVVNSPFSAVDNTGGELPFWQQQSFIDQLLAAGRWLLVLVVAWILWRKAVRPQLTRRVEEAKAAQEQAQVRQETEEAVEVRLSKDEQLQQRRANQRLGAEVMSQRIREMSDNDPRVVALVIRQWMSNDHE
notes: FliF, flagellar M-ring protein, Salmonella enterica serovar typhimurium; Homo-oligomeric ring; 33 subunits is the most common stoichiometry (~80% of particles), 34 ~15%, 32 ~5%; No tag is mentioned; The built models cover only residues 228-438 (RBM3 and beta-collar, PDB 8FTF) and Gln-125 to Gly-227 (RBM2 inner, PDB 8FTE); also called post-assembly MS-ring; FliF protomer; source: E. coli …
B1 was tested, and the “stoichiometry N” value was 32 subunits and 33 subunits and 34 subunits.
